± gives the uncertainty stated by the source.
Experiment: protein stability index of a GFP-peptide fusion (yeast GPS) (PSI 1-4); higher = more stable; sorted into four equal gates, so the index is relative within each strain
Conditions: doa10∆
Procedure, shortened: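 Plasmids in a pooled yeast library fused tiled 17-residue yeast protein peptides downstream of GFP and also expressed Cherry. Mid-log cultures grown without leucine were sorted into four equal gates by GFP/Cherry fluorescence ratio. Each gate's plasmids were PCR-amplified and Illumina-sequenced, and reads were matched to strains by barcodes. The protein stability index is derived by multiplying each gate's read frequency by its gate number and summing the results.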

Row | Sequence | protein stability index
1 | FLVLYDVKTAEEASQLI [NUT1] | 1.45 ± 0.047

Same assay, conditions: pdr5∆

Row | Sequence | protein stability index
2 | ENYDDTELRQLFQENDD [DSN1] | 2.63 ± 0.077
3 | EPDLESQISKAEMEADS [SMC4] | 3.39 ± 0.18
4 | EPDREKIKLLTQATSED [RPC19] | 3.19 ± 0.11
5 | EPELRVLSTEEILNIFK [RPO21] | 3.45 ± 0.17
6 | EPIRFLPNQFPLKIHRT [SWI1] | 1.81 ± 0.075
7 | EPLAIALSMGKSSAFVI [ARP7] | 2.02 ± 0.071
8 | EPNSAKKIRFLQLIIFL [RGR1] | 2.42 ± 0.1
9 | EPPAGVALPPGSNYNPY [CYT1] | 3.13 ± 0.076
10 | EQEDIIEKTESVDKKVD [SWI3] | 3.02 ± 0.081
11 | EQENMRKVREQEELKKR [MED2] | 3.13 ± 0.19
12 | EQKWLIYDKKDHKYVCT [SRB8] | 2.33 ± 0.17
13 | EQLSPQDVLQMLGRAGR [BRR2] | 3.17 ± 0.18
14 | EQQLFEIFAFGNIKDLP [CSN9] | 2.97 ± 0.06
15 | EQTTGGNNKDLKNTMQY [RPB4] | 3.09 ± 0.082
16 | EQWLRQFEVSDDEKNDK [SNF2] | 3.21 ± 0.059
17 | ERGLKVKEYQLRDRNFS [RPL11A] | 2.63 ± 0.2
18 | ERGQKVKNVKNSDLEFN [ARP9] | 1.96 ± 0.09
19 | ERIVVSYEYYNIKHKHT [SMC2] | 1.86 ± 0.064
20 | ERLAKVNEMNDQLAQEL [NNF1] | 3.42 ± 0.17
21 | ERNAAYQKEYETAERNI [RPL7A] | 2.61 ± 0.1
22 | ERRVLLSAPLSKELRAQ [RPL26B] | 2.9 ± 0.047
23 | ERSELLRLFNAPDSEYL [SNF2] | 2.8 ± 0.051
24 | ERSSKRLAKKPSMKKIK [SIR3] | 3.12 ± 0.084
25 | ERVQSDENKDDELVKLL [SRP68] | 3.42 ± 0.12
26 | ESDETTTDNNNSGNSNS [RPT1] | 3.11 ± 0.098

Row | Sequence | protein stability index
27 | ESEYREFESELKNVEET [ESC2] | 3.47 ± 0.2
28 | ESFKGLQPFWFRVNNAS [ECM29] | 1.92 ± 0.11
29 | ESINNVVDQLWSEISNE [RPN2] | 2.94 ± 0.053
30 | ESKDSIQDLIVKLKQQK [SMC3] | 3.12 ± 0.13
31 | ESKMRQQEAKYRNNEPA [YDL088C/ASM4] | 3.12 ± 0.063
32 | ESLKKSPIFEVLSDDAK [ARP9] | 3.15 ± 0.079
33 | ESMDFLVLADAFDIELS [YCS4] | 2.82 ± 0.043
34 | ESPNYCNALIHIKFSAG [SRB4] | 1.83 ± 0.039
35 | ESQPKQTGTRRNSKLLN [MCD1] | 3.16 ± 0.12
36 | ESSNEAKKTIQNPLNKS [SIR4] | 2.76 ± 0.059
37 | ESVIEQIVKYARKGLTP [RPS13] | 2.94 ± 0.073
38 | ETAERNIIQAKRDAKAA [RPL7A] | 2.06 ± 0.21
39 | ETEFPPFREFLQVLIDQ [ECM29] | 3.45 ± 0.16
40 | ETISAIEHPMTSAIEVL [RPN1] | 1.72 ± 0.042
41 | ETITTKRVPNPNFLGNC [SWP82] | 2.58 ± 0.047
42 | ETLEHNPVALEQKLVDL [BRR2] | 2.79 ± 0.077
43 | ETLSIFTNVPLNLEQVT [YJL039C/NUP192] | 2.53 ± 0.049
44 | ETSSDGSKSDGSAATSG [RPN1] | 3.4 ± 0.055
45 | ETTLGEMAEKIDFTLLN [PRP8] | 3.17 ± 0.1
46 | ETVPDNVKTSVSQLYRI [RPO31] | 3.16 ± 0.13
47 | EVFSRPEWMILTCLPVP [RPO21] | 1.48 ± 0.12
48 | EVILVDPQHKAIRRDAR [RPL15A] | 3.15 ± 0.13
49 | EVINKEIENATKDIFPL [RPS1A] | 2.74 ± 0.19
50 | EVNKSELYLTAELSEIW [SIR3] | 2.86 ± 0.29
51 | EVTFKNANIFSSVKCFG [FAS1] | 2.81 ± 0.058

Row | Sequence | protein stability index
52 | EWQDIIHQREQELQIKR [CSE2] | 3.5 ± 0.17
53 | EWYLSHLCSGILSSVNR [SRB8] | 1.55 ± 0.079
54 | EYALPKTYNKLHYCVSC [RPS26A] | 1.42 ± 0.055
55 | EYDTPALFFDPSLNPIP [PRP8] | 2.87 ± 0.036
56 | EYKLRSLTLSFIRHVAK [ECM29] | 2.54 ± 0.062
57 | EYYVMMDFANLWVFQAF [SRB8] | 2.37 ± 0.082
58 | FAKEHNATVNLAMEAIL [YJR042W/NUP85] | 2.66 ± 0.1
59 | FARLSRLLSLWEVFQMA [RPC82] | 1.97 ± 0.096
60 | FASIPVSNSISRLGEEN [SNU114] | 2.63 ± 0.051
61 | FCPGEIVGKSNVLVTMP [YMR129W/POM152] | 2.3 ± 0.1
62 | FDHNDKKLSINSAARNI [PRE7] | 2.47 ± 0.059
63 | FDKVEVQVRSVMDPITS [DIS3] | 2.8 ± 0.066
64 | FDLVRNIVKQNEGIDLD [SMC2] | 3.51 ± 0.12
65 | FDQAGKKVSRRNARATR [RPL13A] | 3.36 ± 0.057
66 | FDSLRNFIVHSPMLKRI [GRR1] | 2.47 ± 0.079
67 | FEEDSDLALPPPPPPPP [PRP8] | 3.25 ± 0.066
68 | FEIIFPPTDTNVEESVS [POP5] | 2.68 ± 0.085
69 | FEKKELQEKFLNQIATL [IRR1] | 1.23 ± 0.057
70 | FEKVGSHLYKARLDGHD [RPN14] | 3.51 ± 0.19
71 | FELVSDLSYIEFLFESL [ECM29] | 2.74 ± 0.077
72 | FESLPLKSAENSGKQQY [SWP82] | 3.3 ± 0.057
73 | FFDGSASSTPIPVLGKP [YOR098C/NUP1] | 2.94 ± 0.04
74 | FFKPLDYITEAVFKIVL [SNU114] | 1.95 ± 0.055
75 | FFYLRISKKLQFSYLSS [PCI8] | 1.24 ± 0.059
76 | FGFSSSGTAATGAASNQ [YOR098C/NUP1] | 3.41 ± 0.13

Row | Sequence | protein stability index
77 | FGKLLQAYQFLNTFGSK [ITC1] | 1.26 ± 0.073
78 | FGNIQKVVNFWLLHNGF [RPO21] | 1.83 ± 0.099
79 | FGNSLICEDPETAKKIT [SMC2] | 2.74 ± 0.084
80 | FGNTSTSSAPAQNQGMF [YGL172W/NUP49] | 3.4 ± 0.24
81 | FGPIKVELPTKETVEIG [FAS1] | 3.28 ± 0.07
82 | FGVPNSSKNETSKPVFS [YLR335W/NUP2] | 2.97 ± 0.13
83 | FHKYRLKRNSWPKTRGV [RPL2A] | 2.71 ± 0.1
84 | FHNAVFNSFRRFKSQFL [QCR8] | 1.52 ± 0.046
85 | FHSEISPDSTVNRSVVV [YAR002W/NUP60] | 1.76 ± 0.052
86 | FICTTFRTDMLQVADKF [SMC3] | 2.31 ± 0.12
87 | FILELEHKTPELISFKE [YIL149C/MLP2] | 3.05 ± 0.086
88 | FIPNKQLNCVIDRVNGI [RPN7] | 2.75 ± 0.21
89 | FIVSGTASDQLFGMCES [PUP3] | 2.46 ± 0.045
90 | FKGTDFVHSVKKFLRVR [SRB4] | 2.64 ± 0.066
91 | FKKLNSKNMSKSPSLTA [YMR153W/NUP53] | 2.38 ± 0.048
92 | FKMNEIVPLHSPFLMGH [SEC65] | 2.59 ± 0.072
93 | FKNMGNTCYLNATLQAL [UBP6] | 1.92 ± 0.083
94 | FKQIKSADCELLGIDAT [RPO31] | 1.8 ± 0.089
95 | FKSLIDEDLLDTQTFSV [YGL172W/NUP49] | 3.05 ± 0.25
96 | FKSPIDNSESHPFIPLL [RRP6] | 2.23 ± 0.053
97 | FKSVLPIVLLNTLRKCY [UBP6] | 1.23 ± 0.071
98 | FLDSQRVWAEYATKRQE [PRP8] | 2 ± 0.07
99 | FLKEVLSDLSSPVQDWN [YML103C/NUP188] | 3.03 ± 0.097

From the supplement of paper PMC9732359
